Target: T1, Delta变异株SARS-COV-2 RBD蛋白(Ag101) (SARS-COV-2 Delta变异株, UniProt P0DTC2 319-541)
T1 construct: domain: RBD; also called Delta variant SARS-COV-2 RBD protein
Test: competition ELISA: Delta RBD coated, blocks ACE2 binding

Binder	IC50
R1463 (VHH, also called RX017 VHH-His标签; 对照) VHH: QVQLVESGGGVVQPGGSLRLSCTCSRCTFNWDGMGWFRQAPGKGLEFVATISWSGQEPAYADSVKGRFTISRDNSKNTLYLQMTSLRAEDTAVYYCAAAQYTGASYSILRDQVGYDYWGQGTLVTVSS	18.1 pM
R1475 (VHH, not shown: small tags and cut ends, also called 人源化多价结合蛋白 R1475; VHH-Linker-VHH-His标签) VHH 1: QVQLVESGGGVVQPGGSLRLSCTCSRCTFNWDGMGWFRQAPGKGLEFVATISWSGQEPAYADSVKGRFTISRDNSKNTLYLQMTSLRAEDTAVYYCAAAQYTGASYSILRDQVGYDYWGQGTLVTVSS VHH 2: QVQLVESGGGVVQPGGSLRLSCTCSRCTFNWDGMGWFRQAPGKGLEFVATISWSGQEPAYADSVKGRFTISRDNSKNTLYLQMTSLRAEDTAVYYCAAAQYTGASYSILRDQVGYDYWGQGTLVTVSS	3.34 pM
R1464 (VHH, not shown: small tags and cut ends, also called 人源化多价结合蛋白 R1464; His标签-VHH-Linker-VHH-Linker-VHH) chain (part 1 of 3): HHHHHHQVQLVESGGGVVQPGGSLRLSCTCSRCTFNWDGMGWFRQAPGKGLEFVATISWSGQEPAYADSVKGRFTISRDNSKNTLYLQMTSLRAEDTAVYYCAAAQYTGASYSILRDQVGYDYWGQGTLVTVSS chain (part 2 of 3): QVQLVESGGGVVQPGGSLRLSCTCSRCTFNWDGMGWFRQAPGKGLEFVATISWSGQEPAYADSVKGRFTISRDNSKNTLYLQMTSLRAEDTAVYYCAAAQYTGASYSILRDQVGYDYWGQGTLVTVSS chain (part 3 of 3): QVQLVESGGGVVQPGGSLRLSCTCSRCTFNWDGMGWFRQAPGKGLEFVATISWSGQEPAYADSVKGRFTISRDNSKNTLYLQMTSLRAEDTAVYYCAAAQYTGASYSILRDQVGYDYWGQGTLVTVSS	4.32 pM

From patent CN115057938A (dated 2022)
